# Experimental data: patent US20190359687A1 (Bayer, published 2019)
# T1: human glycophorin A in the red blood cell membrane (human, UniProt P02724 20-150)
# T1 construct: whole, on cells; used for intact RBC, isolated RBC membranes and transfected cells; the assay field tells which; also called GPA; hGPA
# T1 sequence (looked up): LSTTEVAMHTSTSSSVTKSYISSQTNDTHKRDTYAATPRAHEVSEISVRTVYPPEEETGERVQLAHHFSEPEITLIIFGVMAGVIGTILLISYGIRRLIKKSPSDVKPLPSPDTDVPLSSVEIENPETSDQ
# T2: Rhesus monkey glycophorin A on Rhesus monkey red blood cells (Rhesus monkey, UniProt A0A1D5Q349 20-150)
# T2 construct: whole, on cells; also called Rhesus RBC; monkey GPA
# T2 sequence: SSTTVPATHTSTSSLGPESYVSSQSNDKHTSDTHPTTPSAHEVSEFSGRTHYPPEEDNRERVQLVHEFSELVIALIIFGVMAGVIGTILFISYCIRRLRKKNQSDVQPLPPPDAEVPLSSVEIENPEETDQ
# Key:
# [1] = target: T1, human glycophorin A in the red blood …; test: FACS, RBC Hu01
# Method: (§1) The binding of the humanized variants to intact red blood cells (RBC) from humans (Hu01 to 03; 3 individuals), Rhesus monkey (Rh01 to 03; 3 individuals) and Cynomolgus monkey (Cy01 to 02; 2 individuals) was measured by fluorescence activated cell sorting (FACS).
# [2] = target: T2, Rhesus monkey glycophorin A on Rhesus …; test: FACS, RBC Rh01
# Method: as §1
# [3] = target: T3, Cynomolgus monkey glycophorin A on Cynomolgus monkey red blood cells (Cynomolgus monkey); test: FACS, RBC Cy02
# T3 construct: whole, on cells; also called Cyno RBC; Cyno GPA
# Method: as §1
# [4] = target: T1, human glycophorin A in the red blood …; test: FACS, RBC Hu03
# Method: as §1
# [5] = target: T1, human glycophorin A in the red blood …; test: FACS, RBC Hu02
# Method: as §1
# [6] = target: T2, Rhesus monkey glycophorin A on Rhesus …; test: FACS, RBC Rh03
# Method: as §1
# [7] = target: T3, Cynomolgus monkey glycophorin A on …; test: FACS, RBC Cy01
# Method: as §1
# [8] = target: T1, human glycophorin A in the red blood …; test: FACS, IgG
# Method: as §1
# [9] = target: T2, Rhesus monkey glycophorin A on Rhesus …; test: FACS, RBC Rh02
# [10] = target: T3, Cynomolgus monkey glycophorin A on …; test: FACS, Cyno #3 RBC
# [11] = target: T3, Cynomolgus monkey glycophorin A on …; test: FACS, Cyno #1 RBC
# [12] = target: T3, Cynomolgus monkey glycophorin A on …; test: FACS, Cyno #2 RBC
# dog red blood cells = target: T4, dog red blood cells (dog); test: FACS, Dog RBC
# T4 construct: also called dog RBC
# [13] = target: T1, human glycophorin A in the red blood …; test: FACS, Human RBC
# [14] = target: T2, Rhesus monkey glycophorin A on Rhesus …; test: FACS, Rhesus RBC
fluorescence intensity [1],fluorescence intensity [2],fluorescence intensity [3],fluorescence intensity [4],fluorescence intensity [5],fluorescence intensity [6],fluorescence intensity [7],binding result [8],fluorescence intensity [9],FACS signal [10] [Flourescent units],FACS signal [11] [Flourescent units],FACS signal [12] [Flourescent units],FACS signal (dog red blood cells) [Flourescent units],FACS signal [13] [Flourescent units],FACS signal [14] [Flourescent units],Binder
3,1190,801,2,3,1140,742,no binding,1120,–,–,–,–,–,–,"Hu6C12-1 (antibody, V domains shown, IgG format; VH.1a + Vk.1) VH: EVQLVQSGAEVKKPGASVKVSCKASGYTFTTYTIHWVRQAPGQGLEWMGYINPSSDYTRYNPKFKDRVTMTTDTSTSTAYMELRSLRSDDTAVYYCQRGTRDYWGQGTTVTVSS VL: DIQLTQSPSFLSASVGDRVTITCSAASSVSYIYWYQQKPGKAPKLLIYSTSTLPSGVPSRFSGSGSGTEFTLTISSLQPEDFATYYCHQRNSFPFTFGQGTKLEIK"
3,–,127,2,3,–,104,no binding,–,–,–,–,–,–,–,"Hu6C12-17 (antibody, V domains shown, IgG format; VH.1 + Vk.1b) VH: EVQLVQSGAEVKKPGASVKVSCKASGYTFTTYTIHWVRQAPGQGLEWMGYINPSSDYTRYNPKFKDRVTMTTDTSTSTAYMELRSLRSDDTAVYYCARGTRDYWGQGTTVTVSS VL: DIQLTQSPSFLSASVGDRVTITCSAASSVSYIYWFQQKPGKAPKLLIYSTSTLPSGVPSRFSGSGSGTEYTLTISSLQPEDFATYYCHQRNSFPFTFGQGTKLEIK"
3,–,876,2,3,–,741,no binding,–,–,–,–,–,–,–,"Hu6C12-18 (antibody, V domains shown, IgG format; VH.1a + Vk.1b) VH: EVQLVQSGAEVKKPGASVKVSCKASGYTFTTYTIHWVRQAPGQGLEWMGYINPSSDYTRYNPKFKDRVTMTTDTSTSTAYMELRSLRSDDTAVYYCQRGTRDYWGQGTTVTVSS VL: DIQLTQSPSFLSASVGDRVTITCSAASSVSYIYWFQQKPGKAPKLLIYSTSTLPSGVPSRFSGSGSGTEYTLTISSLQPEDFATYYCHQRNSFPFTFGQGTKLEIK"
–,–,–,–,–,–,–,–,–,582,2,761,1,2340,1770,"8F9 scFv-Fc (Fc fusion, as m18) scFv: QVQLQQSGAELARPGASVKMSCKASGYTFTSYSIHWIKQRPGQSLEWIGYINPNSDYANYNQKFKDKATLTTDKSSTTAYMQLSSLTTDDSAVYYCQTGTRDYWGQGTTLTVSSGGGGSGGGGSGGGGSHIVLTQSPAIMSASPGEKVTIICSARSSVSYMYWFQQKPGTSPKLWIYATSSLPSGVPARFSGSGSGTSYSLTISRMEAEDAATYYCHQRSSYPYTFGSGTKLEIKGGGGAGGGGCKPCICTVPEVSSVFIFPPKPKDVLTITLTPKVTCVVVDISKDDPEVQFSWFVDDVEVHTAQTQPREEQFNSTFRSVSELPIMHQDWLNGKEFKCRVNSAAFPAPIEKTISKTKGRPKAPQVYTIPPPKEQMAKDKVSLTCMITDFFPEDITVEWQWNGQPAENYKNTQPIMDTDGSYFVYSKLNVQKSNWEAGNTFTCSVLHEGLHNHHTEKSLSHSPGK"
–,–,–,–,–,–,–,–,–,632,2,981,1,2760,1860,"13G7 scFv-Fc (Fc fusion, as m18) scFv: RVQLQQSGAELARPGASVKMSCKASGYTFTNYAMHWVKQRPGQGLEWIGYINPKSDNTNYNQKFKDKATLTTDKSSATAYMQLSSLTSDDSAVYYCQTGTRDYWGQGTTLTVSSGGGGSGGGGSGGGGSHIVLTQSPAIMSASPGEKVTIFCSASSSITYVYWFQQKPGTSPKLWIYSTSSLPSGVPARFSGSGSGTSYSLTISRMEAEDAATYYCHQRNSYPFTFGSGTKLEIKGGGGAGGGGCKPCICTVPEVSSVFIFPPKPKDVLTITLTPKVTCVVVDISKDDPEVQFSWFVDDVEVHTAQTQPREEQFNSTFRSVSELPIMHQDWLNGKEFKCRVNSAAFPAPIEKTISKTKGRPKAPQVYTIPPPKEQMAKDKVSLTCMITDFFPEDITVEWQWNGQPAENYKNTQPIMDTDGSYFVYSKLNVQKSNWEAGNTFTCSVLHEGLHNHHTEKSLSHSPGK"
–,–,–,–,–,–,–,–,–,602,2,876,1,2040,1450,"6C12 scFv-Fc (Fc fusion, scFv fused to a mouse Fc fragment; printed order VH-linker-VL-Fc) scFv: RVQLQQSGAELARPGASVKMSCKASGYTFTTYTIHWVKQKTGQGLEWIGYINPSSDYTRYNPKFKDKATLTTDKSSSTAYMKLNSLASDDSAVYYCQTGTRDYWGQGTTLTVSSGGGGSGGGGSGGGGSQIVLTQSPPIMSASPGEKVTMTCSAASSVSYIYWFQQKPGTSPKLWIYSTSTLPSGVPTRFSGSGSGTSYSLTISRMEAEDAATYYCHQRNSFPFTFGSGTKLEIRGGGGAGGGGCKPCICTVPEVSSVFIFPPKPKDVLTITLTPKVTCVVVDISKDDPEVQFSWFVDDVEVHTAQTQPREEQFNSTFRSVSELPIMHQDWLNGKEFKCRVNSAAFPAPIEKTISKTKGRPKAPQVYTIPPPKEQMAKDKVSLTCMITDFFPEDITVEWQWNGQPAENYKNTQPIMDTDGSYFVYSKLNVQKSNWEAGNTFTCSVLHEGLHNHHTEKSLSHSPGK"
–,–,–,–,–,–,–,–,–,1,1,1,1,1410,1,"7G4 scFv-Fc (Fc fusion, as m18) scFv: QVQLKESGPGLVAPSQSLSITCTVSGFSLTRFGISWVRQPPGKGLEWMGVIWGDGSTDYHSALISRLSITKDNSKSQVFFRLNSLQSDDSATYYCARSFGMDYWGQGTSVTVSSGGGGSGGGGSGGGGSNIMMTQSPSSLAVSAGEKVTMSCKSSQSILNSSNQKNYLAWYQQKPGQSPKLLIYWASTRESGVPDRFTGSGSGTDFTLTISSVQAEDLAVYYCHQYFSSRTFGGGTKLEIKGGGGAGGGGCKPCICTVPEVSSVFIFPPKPKDVLTITLTPKVTCVVVDISKDDPEVQFSWFVDDVEVHTAQTQPREEQFNSTFRSVSELPIMHQDWLNGKEFKCRVNSAAFPAPIEKTISKTKGRPKAPQVYTIPPPKEQMAKDKVSLTCMITDFFPEDITVEWQWNGQPAENYKNTQPIMDTDGSYFVYSKLNVQKSNWEAGNTFTCSVLHEGLHNHHTEKSLSHSPGK"
–,–,–,–,–,–,–,–,–,580,2,956,1,2900,1860,"12C6 scFv-Fc (Fc fusion, as m18) scFv: QVQLQQSGAELARPGASVKMSCKASGYTFTRYSMHWVKQRPGQGLEWIGYINPGTYSTNYNQKFKDRATLTADKSSSTAYMQLNSLTSEDSAVYYCQTGTRDYWGQGTTLTVSSGGGGSGGGGSGGGGSQIVLTQSPPIMSASPGEKVTITCSAASSVSYIYWFQQKPGTSPKLWIYSTSSLPSGVPTRFSGSGSGTSYSLTISRMEAEDAATYYCHQRSSYPFTFGSGTKLEIRGGGGAGGGGCKPCICTVPEVSSVFIFPPKPKDVLTITLTPKVTCVVVDISKDDPEVQFSWFVDDVEVHTAQTQPREEQFNSTFRSVSELPIMHQDWLNGKEFKCRVNSAAFPAPIEKTISKTKGRPKAPQVYTIPPPKEQMAKDKVSLTCMITDFFPEDITVEWQWNGQPAENYKNTQPIMDTDGSYFVYSKLNVQKSNWEAGNTFTCSVLHEGLHNHHTEKSLSHSPGK"
–,–,–,–,–,–,–,–,–,647,2,842,1,2980,2070,"10F1 scFv-Fc (Fc fusion, as m18) scFv: QVQLLQSGAELARPGASVRISCKASGYTFTRYAMHWVKQRPGQGLEWIGYINPGTFSTNYNQKFKDRATLTADKSSSTAYMQLNSLTSEDSAVYYCQTGTRDYWGQGTTLTVSSGGGGSGGGGSGGGGSQIVLTQSPPIMSASPGEKVTITCSAASSVSYIYWFQQKPGTSPKLWIYSTSSLPSGVPTRFSGSGSGTSYSLTISRMEAEDAATYYCHQRSSYPFTFGSGTKLEIRGGGGAGGGGCKPCICTVPEVSSVFIFPPKPKDVLTITLTPKVTCVVVDISKDDPEVQFSWFVDDVEVHTAQTQPREEQFNSTFRSVSELPIMHQDWLNGKEFKCRVNSAAFPAPIEKTISKTKGRPKAPQVYTIPPPKEQMAKDKVSLTCMITDFFPEDITVEWQWNGQPAENYKNTQPIMDTDGSYFVYSKLNVQKSNWEAGNTFTCSVLHEGLHNHHTEKSLSHSPGK"
